From paper PMC6637110

Target: its substrates (DNA-bound substrates of p97 on plasmid isolated from extract with p97i)
Test: pull-down; dilution experiment: plasmid incubated 180 minutes in extract with CB-5083, isolated by plasmid pull-down, washed, resuspended in 100 volumes of ELB with or without 5 mM ATP, 21 °C; p97 retained on bead-bound DNA by Western blot over time

- decrease of DNA-bound p97 within 180 minutes, with ATP: 90%
- decrease of DNA-bound p97 within 180 minutes, without ATP: 70%
Substance: p97 (endogenous, Xenopus egg extract) (from UniProt P23787 1-805) (natural protein)
